Data on eight proteins can be found in the PETadex activity labels.

Substrate in one data set: p-NP-C6
The conditions noted are these: pH 8.5, 60 °C.

Substrate in another data set: BHET
Conditions: 120 h; part of the chain shown.

In general, Km refers to the substrate concentration at which the rate is half of its maximum. Broadly, the kcat is the maximal rate divided by the concentration of active sites. For orientation: kcat/Km means the turnover number divided by the Michaelis constant.

B1: unnamed (protein)
chain: MKIVPPKPFFFEAGERAVLLLHGFTGNSADVRMLGRFLESKGYTCHAPIYKGHGVPPEELVHTGPDDWWQDVMNGYEFLKNKGYEKIAVAGLSLGGVFSLKLGYTVPIEGIVTMCAPMYIKSEETMYEGVLEYAREYKKREGKSEEQIEQEMEKFKQTPMKTLKALQELIADVRDHLDLIYAPTFVVQARHDEMINPDSANIIYNEIESPVKQIKWYEQSGHVITLDQEKDQLHEDIYAFLESLDW
B1: in the data set with p-NP-C6 (part of the chain shown), the Km is 2.16 µM, the turnover number (kcat) was 38 s⁻¹ and the kcat/Km was 1.76e+07 M⁻¹ s⁻¹.

B2: unnamed (protein)
chain: MTVCKLRMFTAQKHPVTNKIFGGSSMSSRKQDLRLRQLLYCLLLSTALGGAVVHAQTAPATIAQEAFNNGFGIFTAAGSATANGQAVLAGTFGGTDGSITSSPISTQGFSNITVSFDRTTVGLDNGEAGVAEFSVAGGAFTAIESAQTASGRMSFALAASAANQAQLRLRFRVVASRANETYSVDNVLVQGVAAGAQPPPPDPQPTNNPFQRGPTPSAATLEAAQGPFAVATTTVPNPSGFGAGTIYFPTSTTEGPFAAVSIAPGFSERQANVNWWGPRLASNGFVVVVIDTNSTSDAPASRATQLVAALRQVVTLSGTSGSPVFNKVDGNRLGVMGHSLGGGGTLIAAQNNPTLKAAIPFAPFNNDTNFSSVVVPTLIIACENDNVAPVADHASPFYNSFAASLDKAFLEIAGGSHSCANSGNNNMPILGKYGVSWMKLFMDNDTRYSPFLCGAPHQADLSGTQISEYRESCP
As to B2, the plate clearing entry with BHET is given as “clears the plate (z > 3 vs empty vector)”.

B3: unnamed (protein)
chain: MDKTRLFSTLSMVTSALLFSISVSAGKPSKGGDEPAPEPAACISDTDITSAALSSTGSSGPFTVSTKDVSRWSASGFGGGTIHYPTGAGDCGPIGGIAVVPGYVSYEASIKWWGPRLASWGFVVITINTNSIYDQPDSRATQLSAALDHIINDSTVGSMVDSSRLGAIGWSMGGGGALKLATDRSEVKAIIPQAPWYSGRYGRMKTPAFMIGCENDFVAPTSNHVDVFYANASGPKMKIEVNNGDHSCANSGYNETLLGKPGIAWMQRYIHGDTRFNQFLCGNENYGSSNSVSAYDFESC
As to B3, the plate clearing entry with BHET was “not clears the plate”.

B4: unnamed (protein)
chain: MNFPRASRLMQAAVLGGLMAVSAAATAQTNPYARGPNPTAASLEASAGPFTVRSFTVSRPSGYGAGTVYYPTNAGGTVGAIAIVPGYTARQSSIKWWGPRLASHGFVVITIDTNSTLDQPSSRSSQQMAALRQVASLNGTSSSPIYGKVDTARMGVMGWSMGGGGSLISAANNPSLKAAAPQAPWDSSTNFSSVTVPTLIFACENDSIAPVNSSALPIYDSMSRNAKQFLEINGGSHSCANSGNSNQALIGKKGVAWMKRFMDNDTRYSTFACENPNSTRVSDFRTANCS
Regarding B4, the plate clearing entry with BHET is reported as “clears the plate (z > 3 vs empty vector)”.

B5: unnamed (protein)
chain: MERTVVETRYGRLRGEMNEGVFVWKGIPYAKAPVGERRFLPPEPPDAWDGVREATSFGPVVMQPSDPIFSGLLGRMSEAPSEDGLYLNIWSPAADGKKRPVLFWIHGGAFLFGSGSSPWYDGTAFAKHGDVVVVTINYRMNVFGFLHLGDSFGEAYAQAGNLGILDQVAALRWVKENIAAFGGDPDNITIFGESAGAASVGVLLSLPEASGLFRRAMLQSGSGSLLLRSPETAMAMTERILDKAGIRPGDRERLLSIPAEELLRAALSLGPGVMYGPVVDGRVLRRHPIEALRYGAASGIPILIGVTKDEYNLFTLTDPSWTKLGEKELLDRINREVGPVPEEAIRYYKETAEPSAPTWQTWLRIMTYRVFVEGMLRTADAQAAQGADVYMYRFDYETPVFGGQLKACHALELPFVFHNLHQPGVANFVGNRPEREAIANEMHYAWLSFARTGDPNGAHLPEAWPAYTNERKAAFVFSAASHVEDDPFGRERAAWQGR
As for B5, in the data set with p-NP-C6, the Km came out at 0.5 µM, the turnover number (kcat) was 39.8 s⁻¹ and the kcat/Km is 7.95e+07 M⁻¹ s⁻¹.

B6: unnamed (protein)
chain: MANPYERGPNPTDALLEASSGPFSVSEENVSRLSASGFGGGTIYYPRENNTYGAVAISPGYTGTEASIAWLGERIASHGFVVITIDTITTLDQPDSRAEQLNAALNHMINRASSTVRSRIDSSRLAVMGHSMGGGGTLRLASQRPDLKAAIPLTPWHLNKNWSSVTVPTLIIGADLDTIAPVATHAKPFYNSLPSSISKAYLELDGATHFAPNIPNKIIGKYSVAWLKRFVDNDTRYTQFLCPGPRDGLFGEVEEYRSTCPF
In the case of B6, the plate clearing entry with BHET is reported as “clears the plate (z > 3 vs empty vector)”.

B7: unnamed (protein)
chain: MLALRTSFPRVLTRLLAASLATGLVAQAQAAGHERGPAPTAASLEAEAGPFQVASTVLGAPVGYKGGTVFYPKGPGPFALVAFAPGFIETQSWNAWWAKYLASHGFVVVNIDTKSTLAFPPARQREQLAALKDVIQRSHTRGTPFYGLVDATRLGAMGHSMGGGATLELARDTPHIKAIVPMAPFQTTGTDYSRLTVPTLILTCKGDIVASAKSHAAPIYDSLPSSLDKAHVELAGGGGHPCTTSLGTSAEVKKVAAKYGVSWLKRFLDEDTRYSPFLCGAEHEASLKTSVVSAYQGNCP
Take B7: the plate clearing entry with BHET is “not clears the plate”.

B8: unnamed (protein)
chain: MNNNKMPKSALSLLVAGALFLSATAMAANPVPPPTNPGNPDSGYQRGPNPSVSMLEARNGPFSVRTTNVSSFTSGFGGGTIHYPTNTTGTMAAIVVIPGFVSAESSIEWWGPKLASHGFVVMTIDTNSGFDQPPSRARQINAALDYLIDQNNARGSAVSGMIDPNRLGVVGWSMGGGGSLRVAAEGRLDAVIPLAPWDTTNFRSVNTPALIFACESDTIAPVRSHASPFYNQIPASTPKAFVEISRGSHYCANGGGSNDAVLSRLGVSWMKVHLDKDQRYQQFICGPRHESDRSISEYRGN
Turning to B8, in the data set with BHET, the plate clearing result was “not clears the plate”.
